± gives the uncertainty stated by the source.

The nature of the data set: amyloid nucleation score (Sup35N fusion, yeast selection) (log enrichment); library NNK3; higher = more nucleation; inactive = no reads after selection. The gist of the method:
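Using DiMSum, nucleation scores were taken as the log enrichment of output over input reads, centred on the mode score of non-aggregating sequences. The input and output reads came from Illumina sequencing of plasmid inserts, with sequences under 100 input reads excluded. The yeast were psi-negative, expressed Sup35N fused to peptides of 20 random codons, were induced with 100 μM copper sulfate for 24 hours, and were grown 7 days at 30°C on medium lacking adenine and uracil.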
On to NEFVSYNLLVTGGWSRCWYF, for which the amyloid nucleation score entry was “inactive”.

As for ISLYNRNIYCRLTFMLRVIR, the amyloid nucleation score result was “inactive”.

Turning to DVNFSLC, the amyloid nucleation score is -0.002 ± 0.32.

Take DHLSVWVSRLDTINCLREVG: the amyloid nucleation score result is “inactive”.

Consider TFGWINVAYSYSFSICGCTG, for which the amyloid nucleation score was found to be 2.62 ± 0.051.

GFYVCPMGCNEYRVLICSDS: the amyloid nucleation score result was “inactive”.

PRQTVISASQPDLNIRGFLC: the amyloid nucleation score entry was “inactive”.

Substance FNIHSQIAFLFLCGYLESTV had an amyloid nucleation score of 1.94 ± 0.075.

For the substance NLYMLNTQGMSVLISCVGRI, the amyloid nucleation score was determined as 0.996 ± 0.091.

On to SDEKNKNVLGAYRVIMCVVY, for which the amyloid nucleation score entry is “inactive”.

As for YSVIYDRSYRIV, the amyloid nucleation score result is “inactive”.

For SWYRVNYTLPC, the amyloid nucleation score result was “inactive”.

With DFARFIPFRPDFNFWGRLTG, the amyloid nucleation score entry was “inactive”.

As to LFVLSTKSLFP, the amyloid nucleation score was found to be 1.39 ± 0.089.

With CMIELRSR, the amyloid nucleation score result was “inactive”.

As for WQRWMA, the amyloid nucleation score entry is “inactive”.

In the case of MKLSVLNVWNSRWGLQTA, the amyloid nucleation score result is “inactive”.

SISWRYWKSI: the amyloid nucleation score result was “inactive”.

Turning to NKVVMGNLWGPPVFDRCDKG, the amyloid nucleation score entry was “inactive”.

Turning to VNDVLGNEPFRVVGEEEIPG, the amyloid nucleation score result is “inactive”.

LNVGCLWRGDGGNRRAQWDV: the amyloid nucleation score entry was “inactive”.

Turning to QPWFMEVL, the amyloid nucleation score result was “inactive”.

Consider RICWSDINWYNRIFLIAELC, for which the amyloid nucleation score entry was “inactive”.

Regarding HEYSSKILMM, the amyloid nucleation score entry was “inactive”.

In the case of LLVGEIGYLEHTMHNCEVEG, the amyloid nucleation score entry is “inactive”.

Consider NWNSSHLNREYTRHFSGMMV, for which the amyloid nucleation score result was “inactive”.

On to GTYSTVKFCLCMWVILAPSS, for which the amyloid nucleation score entry was “inactive”.

Turning to YLFHLLSDRRCEDMCVVGIK, the amyloid nucleation score entry is “inactive”.

On to RTEKMGRDTKRYCVPHINFG, for which the amyloid nucleation score result is “inactive”.

Substance NLCVYWYSWGRSWGDFVTGY came in with an amyloid nucleation score of 0.269 ± 0.36.

Take DSRLSAEYMVRMGKVYIDDS: the amyloid nucleation score result is “inactive”.

Turning to QFDLAMMSVVCYVFFMYWFL, the amyloid nucleation score result was “inactive”.

Turning to VDSHANHGSNHRWSASDEIS, the amyloid nucleation score entry was “inactive”.

With RWGLYLR, the amyloid nucleation score result was “inactive”.

HYVKPSSESRR: the amyloid nucleation score result is “inactive”.

As for YSFLGRNSIISCIR, the amyloid nucleation score entry was “inactive”.

Substance GLAASSTNAFTRHVLNRV returned an amyloid nucleation score of 1.51 ± 0.13.

Substance VNITLLRCEGSGMFGRSSKL gave an amyloid nucleation score of 1.13 ± 0.11.

Turning to LIPSKRTSDRLFLGPATLDF, the amyloid nucleation score result was “inactive”.

Consider SCARSGTYIAVGIQSCCPRW, for which the amyloid nucleation score was determined as 1.5 ± 0.14.

RRYHHFRRECWLVERRIVVF: the amyloid nucleation score entry is “inactive”.

Consider MKLSMHVCAGAKLSGEGFRF, for which the amyloid nucleation score entry is “inactive”.

Take VSLFYKCSYNGVYNNRVLAP: the amyloid nucleation score came to 1.43 ± 0.09.

Take PVGRKLTTFRVNTCLLGYFK: the amyloid nucleation score result is “inactive”.

As to LLKCYRPFSVFIYFNVLASG, the amyloid nucleation score result was “inactive”.

DVLLARCYNCLSAFRLNSLC: the amyloid nucleation score entry was “inactive”.

Regarding FEMPLMWYCGGFYSSPLLCK, the amyloid nucleation score entry is “inactive”.

With IKRGRTVQKVFCMWVVSYPR, the amyloid nucleation score result is “inactive”.

For the substance KTHTPTVQMEL, the amyloid nucleation score result was “inactive”.

As for YETSVH, the amyloid nucleation score result is “inactive”.

With IWYGLDIWRPLCIGAPMVKD, the amyloid nucleation score entry is “inactive”.

Turning to VTVCSFLLVSRNRNRLRRIY, the amyloid nucleation score result is “inactive”.

EEGATVRTPLATRPGRTLK: the amyloid nucleation score entry is “inactive”.

These data come from the supplement of paper PMC12042874.
